Laboratory results from the supplement of paper PMC5998384.

Columns and labels:
HeLa Kyoto [1] = assay: solubility change mitosis vs G1/S (difference of NP-40 vs SDS log2 ratios) (log2 ratio difference); higher = more soluble in mitosis
HeLa Kyoto [2] = assay: melting temperature (median over replicates), in situ; higher = more thermally stable
HeLa Kyoto [3] = assay: thermal stability score vs G1/S (z-score of summed log2 fold changes over temperatures); higher = more thermally stable than in G1/S
HeLa Kyoto [4] = assay: solubility in G1/S (NP-40 vs SDS abundance) (log2 ratio); higher = more soluble; conditions: cell cycle stage: G1/S
[5] = cell cycle stage: early G1 (4.5 h after nocodazole release)
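For melting temperature (median over replicates), in situ in this document: HeLa Kyoto cells synchronized by double thymidine or nocodazole block, proteins quantified by TMT10plex mass spectrometry, three independent biological replicates.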
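For solubility change mitosis vs G1/S (difference of NP-40 vs SDS log2 ratios) in this document: synchronized HeLa Kyoto cells (double thymidine block for G1/S, nocodazole release for mitosis), protein amounts in NP-40 versus SDS lysates quantified by mass spectrometry, three biological replicates.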
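For solubility in G1/S (NP-40 vs SDS abundance) in this document: HeLa Kyoto cells arrested at G1/S by double thymidine block, proteins quantified by TMT10plex mass spectrometry in mild NP-40 versus SDS extracts, three biological replicates.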
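For thermal stability score vs G1/S (z-score of summed log2 fold changes over temperatures) in this document: synchronized HeLa Kyoto cells, proteins quantified by TMT10plex mass spectrometry, three biological replicates, mitosis taken 0.5 h after nocodazole release, G1/S directly after double thymidine block.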

Sequence | solubility change mitosis (log2) (HeLa Kyoto [1]) | melting temperature (HeLa Kyoto [2]; cell cycle stage: G1/S) [°C] | melting temperature (HeLa Kyoto [2]; cell cycle stage: mitosis) [°C] | thermal stability score (HeLa Kyoto [3]; [5]) | thermal stability score (HeLa Kyoto [3]; cell cycle stage: mitosis) | solubility in G1/S (log2) (HeLa Kyoto [4])
MPLVKRNIDPRHLCHTALPRGIKNELECVTNISLANIIRQLSSLSKYAEDIFGELFNEAHSFSFRVNSLQERVDRLSVSVTQLDPKEEELSLQDITMRKAFRSSTIQDQQLFDRKTLPIPLQETYDVCEQPPPLNILTPYRDDGKEGLKFYTNPSYFFDLWKEKMLQDTEDKRKEKRKQKQKNLDRPHEPEKVPRAPHDRRREWQKLAQGPELAEDDANLLHKHIEVANGPASHFETRPQTYVDHMDGSYSLSALPFSQMSELLTRAEERVLVRPHEPPPPPPMHGAGDAKPIPTCISSATGLIENRPQSPATGRTPVFVSPTPPPPPPPLPSALSTSSLRASMTSTPPPPVPPPPPPPATALQAPAVPPPPAPLQIAPGVLHPAPPPIAPPLVQPSPPVARAAPVCETVPVHPLPQGEVQGLPPPPPPPPLPPPGIRPSSPVTVTALAHPPSGLHPTPSTAPGPHVPLMPPSPPSQVIPASEPKRHPSTLPVISDARSVLLEAIRKGIQLRKVEEQREQEAKHERIENDVATILSRRIAVEYSDSEDDSEFDEVDWLE [WASF1] | 0.025 | 51.5 | 52 | -0.0852 | 0.459 | 0.124
MPMWAGGVGSPRRGMAPASTDDLFARKLRQPARPPLTPHTFEPRPVRGPLLRSGSDAGEARPPTPASPRARAHSHEEASRPAATSTRLFTDPLALLGLPAEEPEPAFPPVLEPRWFAHYDVQSLLFDWAPRSQGMGSHSEASSGTLASAEDQAASSDLLHGAPGFVCELGGEGELGLGGPASPPVPPALPNAAVSILEEPQNRTSAYSLEHADLGAGYYRKYFYGKEHQNFFGMDESLGPVAVSLRREEKEGSGGGTLHSYRVIVRTTQLRTLRGTISEDALPPGPPRGLSPRKLLEHVAPQLSPSCLRLGSASPKVPRTLLTLDEQVLSFQRKVGILYCRAGQGSEEEMYNNQEAGPAFMQFLTLLGDVVRLKGFESYRAQLDTKTDSTGTHSLYTTYQDHEIMFHVSTMLPYTPNNQQQLLRKRHIGNDIVTIVFQEPGSKPFCPTTIRSHFQHVFLVVRAHTPCTPHTTYRVAVSRTQDTPAFGPALPAGGGPFAANADFRAFLLAKALNGEQAAGHARQFHAMATRTRQQYLQDLATNEVTTTSLDSASRFGLPSLGGRRRAAPRGPGAELQAAGSLVWGVRAAPGARVAAGAQASGPEGIEVPCLLGISAEALVLVAPRDGRVVFNCACRDVLAWTFSEQQLDLYHGRGEAITLRFDGSPGQAVGEVVARLQLVSRGCETRELALPRDGQGRLGFEVDAEGFVTHVERFTFAETAGLRPGARLLRVCGQTLPSLRPEAAAQLLRSAPKVCVTVLPPDESGRPRRSFSELYTLSLQEPSRRGAPDPVQDEVQGVTLLPTTKQLLHLCLQDGGSPPGPGDLAEERTEFLHSQNSLSPRSSLSDEAPVLPNTTPDLLLATTAKPSVPSADSETPLTQDRPGSPSGSEDKGNPAPELRASFLPRTLSLRNSISRIMSEAGSGTLEDEWQAISEIASTCNTILESLSREGQPIPESGDPKGTPKSDAEPEPGNLSEKVSHLESMLRKLQEDLQKEKADRAALEEEVRSLRHNNRRLQAESESAATRLLLASKQLGSPTADLA [SIPA1] | 0.0512 | 50.8 | 51.4 | 1.19 | 0.467 | -0.217
MPNIKIFSGSSHQDLSQKIADRLGLELGKVVTKKFSNQETCVEIGESVRGEDVYIVQSGCGEINDNLMELLIMINACKIASASRVTAVIPCFPYARQDKKDKSRAPISAKLVANMLSVAGADHIITMDLHASQIQGFFDIPVDNLYAEPAVLKWIRENISEWRNCTIVSPDAGGAKRVTSIADRLNVDFALIHKERKKANEVDRMVLVGDVKDRVAILVDDMADTCGTICHAADKLLSAGATRVYAILTHGIFSGPAISRINNACFEAVVVTNTIPQEDKMKHCSKIQVIDISMILAEAIRRTHNGESVSYLFSHVPL [PRPS1] | -0.136 | 57.3 | 57.4 | 1.55 | 0.473 | -0.185
MPNIVLFSGSSHQDLSQRVADRLGLELGKVVTKKFSNQETSVEIGESVRGEDVYIIQSGCGEINDNLMELLIMINACKIASSSRVTAVIPCFPYARQDKKDKSRAPISAKLVANMLSVAGADHIITMDLHASQIQGFFDIPVDNLYAEPAVLQWIRENIAEWKNCIIVSPDAGGAKRVTSIADRLNVEFALIHKERKKANEVDRMVLVGDVKDRVAILVDDMADTCGTICHAADKLLSAGATKVYAILTHGIFSGPAISRINNAAFEAVVVTNTIPQEDKMKHCTKIQVIDISMILAEAIRRTHNGESVSYLFSHVPL [PRPS2] | -0.112 | 55.1 | 55.9 | 3.16 | 2.12 | -0.014
MPNQGEDCYFFFYSTCTKGDSCPFRHCEAAIGNETVCTLWQEGRCFRQVCRFRHMEIDKKRSEIPCYWENQPTGCQKLNCAFHHNRGRYVDGLFLPPSKTVLPTVPESPEEEVKASQLSVQQNKLSVQSNPSPQLRSVMKVESSENVPSPTHPPVVINAADDDEDDDDQFSEEGDETKTPTLQPTPEVHNGLRVTSVRKPAVNIKQGECLNFGIKTLEEIKSKKMKEKSKKQGEGSSGVSSLLLHPEPVPGPEKENVRTVVRTVTLSTKQGEEPLVRLSLTERLGKRKFSAGGDSDPPLKRSLAQRLGKKVEAPETNIDKTPKKAQVSKSLKERLGMSADPDNEDATDKVNKVGEIHVKTLEEILLERASQKRGELQTKLKTEGPSKTDDSTSGARSSSTIRIKTFSEVLAEKKHRQQEAERQKSKKDTTCIKLKIDSEIKKTVVLPPIVASRGQSEEPAGKTKSMQEVHIKTLEEIKLEKALRVQQSSESSTSSPSQHEATPGARRLLRITKRTGMKEEKNLQEGNEVDSQSSIRTEAKEASGETTGVDITKIQVKRCETMREKHMQKQQEREKSVLTPLRGDVASCNTQVAEKPVLTAVPGITRHLTKRLPTKSSQKVEVETSGIGDSLLNVKCAAQTLEKRGKAKPKVNVKPSVVKVVSSPKLAPKRKAVEMHAAVIAAVKPLSSSSVLQEPPAKKAAVAVVPLVSEDKSVTVPEAENPRDSLVLPPTQSSSDSSPPEVSGPSSSQMSMKTRRLSSASTGKPPLSVEDDFEKLIWEISGGKLEAEIDLDPGKDEDDLLLELSEMIDS [ZC3H11A] | 0.559 | 45.8 | 48.6 | 2.36 | 7.44 | -0.583
MPPPRTREGRDRRDHHRAPSEEEALEKWDWNCPETRRLLEDAFFREEDYIRQGSEECQKFWTFFERLQRFQNLKTSRKEEKDPGQPKHSIPALADLPRTYDPRYRINLSVLGPATRGSQGLGRHLPAERVAEFRRALLHYLDFGQKQAFGRLAKLQRERAALPIAQYGNRILQTLKEHQVVVVAGDTGCGKSTQVPQYLLAAGFSHVACTQPRRIACISLAKRVGFESLSQYGSQVGYQIRFESTRSAATKIVFLTVGLLLRQIQREPSLPQYEVLIVDEVHERHLHNDFLLGVLQRLLPTRPDLKVILMSATINISLFSSYFSNAPVVQVPGRLFPITVVYQPQEAEPTTSKSEKLDPRPFLRVLESIDHKYPPEERGDLLVFLSGMAEISAVLEAAQTYASHTQRWVVLPLHSALSVADQDKVFDVAPPGVRKCILSTNIAETSVTIDGIRFVVDSGKVKEMSYDPQAKLQRLQEFWISQASAEQRKGRAGRTGPGVCFRLYAESDYDAFAPYPVPEIRRVALDSLVLQMKSMSVGDPRTFPFIEPPPPASLETAILYLRDQGALDSSEALTPIGSLLAQLPVDVVIGKMLILGSMFSLVEPVLTIAAALSVQSPFTRSAQSSPECAAARRPLESDQGDPFTLFNVFNAWVQVKSERSRNSRKWCRRRGIEEHRLYEMANLRRQFKELLEDHGLLAGAQAAQVGDSYSRLQQRRERRALHQLKRQHEEGAGRRRKVLRLQEEQDGGSSDEDRAGPAPPGASDGVDIQDVKFKLRHDLAQLQAAASSAQDLSREQLALLKLVLGRGLYPQLAVPDAFNSSRKDSDQIFHTQAKQGAVLHPTCVFAGSPEVLHAQELEASNCDGSRDDKDKMSSKHQLLSFVSLLETNKPYLVNCVRIPALQSLLLFSRSLDTNGDCSRLVADGWLELQLADSESAIRLLAASLRLRARWESALDRQLAHQAQQQLEEEEEDTPVSPKEVATLSKELLQFTASKIPYSLRRLTGLEVQNMYVGPQTIPATPHLPGLFGSSTLSPHPTKGGYAVTDFLTYNCLTNDTDLYSDCLRTFWTCPHCGLHAPLTPLERIAHENTCPQAPQDGPPGAEEAALETLQKTSVLQRPYHCEACGKDFLFTPTEVLRHRKQHV [DHX34] | -0.0525 | 50.1 | 49.8 | 0.188 | 0.311 | -0.242
MPQYQTWEEFSRAAEKLYLADPMKARVVLKYRHSDGNLCVKVTDDLVCLVYKTDQAQDVKKIEKFHSQLMRLMVAKEARNVTMETE [SRP9] | 0.394 | 53.5 | 52.1 | -2.84 | -5.71 | -0.607
